Measured values reported in publication PMC12122801 (Nature Communications, 2025).

Biological target: Mycobacterium tuberculosis MmpL5 (Rv0676c) with a C-terminal 1×FLAG tag (Mycobacterium tuberculosis, UniProt P9WJV1)
Experiment: cryo-EM structure

Sequence of Mycobacterium tuberculosis MmpL5 (Rv0676c) with a C-terminal 1×FLAG tag (P9WJV1 whole entry): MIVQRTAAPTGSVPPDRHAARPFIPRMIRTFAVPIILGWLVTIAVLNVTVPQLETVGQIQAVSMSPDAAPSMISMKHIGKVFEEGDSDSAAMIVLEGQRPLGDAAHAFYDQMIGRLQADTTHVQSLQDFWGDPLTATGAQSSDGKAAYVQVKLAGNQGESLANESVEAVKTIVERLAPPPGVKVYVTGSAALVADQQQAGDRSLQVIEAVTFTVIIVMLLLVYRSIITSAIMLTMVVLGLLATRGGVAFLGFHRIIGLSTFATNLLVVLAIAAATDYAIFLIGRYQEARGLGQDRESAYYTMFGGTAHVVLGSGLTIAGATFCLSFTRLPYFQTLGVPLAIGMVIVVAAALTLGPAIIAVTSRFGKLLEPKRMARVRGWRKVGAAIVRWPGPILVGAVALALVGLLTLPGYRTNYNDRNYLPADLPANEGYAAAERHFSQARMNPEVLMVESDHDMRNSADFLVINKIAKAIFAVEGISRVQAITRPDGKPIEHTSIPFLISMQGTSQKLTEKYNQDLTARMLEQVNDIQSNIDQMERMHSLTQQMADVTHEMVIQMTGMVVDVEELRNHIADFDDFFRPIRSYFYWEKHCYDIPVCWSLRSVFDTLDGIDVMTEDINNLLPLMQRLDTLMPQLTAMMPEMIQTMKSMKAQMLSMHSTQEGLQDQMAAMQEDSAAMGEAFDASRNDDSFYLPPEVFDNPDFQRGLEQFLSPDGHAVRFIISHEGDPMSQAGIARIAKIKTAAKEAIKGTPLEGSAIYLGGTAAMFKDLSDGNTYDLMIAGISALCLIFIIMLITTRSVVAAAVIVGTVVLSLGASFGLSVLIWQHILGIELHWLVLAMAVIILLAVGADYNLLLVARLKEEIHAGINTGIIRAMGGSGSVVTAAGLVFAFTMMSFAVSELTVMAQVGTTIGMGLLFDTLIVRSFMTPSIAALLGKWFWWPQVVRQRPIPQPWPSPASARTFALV

B1: Mycobacterium smegmatis acyl carrier protein AcpM (MSMEG_4326) (natural protein)
chain: MAATQEEIIAGLAEIIEEVTGIEPSEVTPEKSFVDDLDIDSLSMVEIAVQTEDKYGVKIPDEDLAGLRTVGDVVAYIQKLEEENPEAAAALREKFAADQ
modifications: 4'-phosphopantetheine (Ppant) covalently attached to Ser41 via a phosphodiester (holo-form)
Does B1 bind?
Result: binds
